According to the nanobody polyreactivity screen of Harvey et al. (2022):

Assay: yeast display, Sf9 membrane polyspecificity reagent, FACS + sequencing; frameworks hold sequencing errors
Summary of the method: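 Polyreactivity labels are assigned by the sorting gate from which each nanobody was recovered. The gates were low and high (top ~1%), set on anti-HA fluorescence for expression and streptavidin fluorescence for reagent binding. Before sorting, galactose-induced (36–48 hours) yeast display cells were stained for 1 hour at 4 °C with 10% biotinylated, detergent-solubilized Sf9 membrane reagent.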

QVQLVESGGGLVQAGGSLRLSCAASGNIFYTNAMGWYRQAPGKERELVATISRSVGSTYYADSVKGRFTISRDNAKNTVYLQMNSLKPEDTAVYYCAASRLLSALTAYSWGFNYWGQGSQVTVSS
polyreactivity (PSR sort gate): high polyreactivity

QVQLVESGGGLVQAGGSLRLSCAASGIIFYYYAMGGYRQAPGKEREFVAGIRWSSGSTYYADSVKGRFTISRDNAKNTVYLQMNSLKPEDTAVYYCAADSSGEYPGGYWGQGTQVTVSS
polyreactivity (PSR sort gate): low polyreactivity

QVQLVESGGGVVQAGGSLRLSCAASGRTFKKYAMGWYRQAPGKEREFVARITYSAGSTYYADSVKGRFTISRDNAKNSVYLQMNSLKPEDTAVYYCASRFASSGPRWYSRHGEYDYWGQGTQVTVSS
polyreactivity (PSR sort gate): low polyreactivity

QVQLVESGGGLVQAGGSLRLSCAASGITFYDNVMGWYRQAPGKERELVAAITDSGGSTYYADSVKGRFTISRDNAKNTVYLQMNSLKPEDTAVYYCNADVNAHWWWYIEEYWGQGTQVTVSS
polyreactivity (PSR sort gate): low polyreactivity

QVQLVESGGGLVQAGGSLRLSCAASGSTIRNYAMGWYRQAPGKERELVAAISSGGRTYYADSVKGRFTISRDNAKNTVYLQMNSLKPEDTAVYYCNTPYTVRGRYTYDYWGQGTQVTVSS
polyreactivity (PSR sort gate): high polyreactivity

QVQLVESGGGLVQAGGSLRLSCAASGRTFVPYAMGWYRQAPGKERELVAAINSGTRTYADSVKGRFTISRDNAKNTVYLQMNSLKPEDTAVYYCARRGYYYDYWGQGTQVTVSS
polyreactivity (PSR sort gate): high polyreactivity

QVQLVESGGGLVQAGGSLRLSCAASGFIFIFYAMGWYRQAPGKERELVAGISWSSSSTYYADSVKGRFTISRDNAKNTVYLLMNSLKPEDTAVYYFNAKHLPRHRDYWGQGTQVTVSS
polyreactivity (PSR sort gate): low polyreactivity

QVQLVESGGGLVQAGGSLRLSCAASGRTFLRYAMGWYRQAPGKERELVAAISGSGGSTYYADSVKGRFTISRDNAKNTVYLQMNSLKPEDTAVYYCATRFWVSFKAREYWGQGTQVTVSS
polyreactivity (PSR sort gate): high polyreactivity

QVQLVESGGGLVQAGGSLRLSCAASGRTFKCYAMGWYRQAPGKETELVAAISYRGGSTYYADSVKGRFTISRDNAKNTVYLQIKRLKPEDTAVYYCAARWNRGRYDYWGQGTQVTESS
polyreactivity (PSR sort gate): high polyreactivity

QVQLVESGGGLVQAGGSLRLSCAASGSTFNRYAMGWYRQAPGKERELVAAITSTGGTNYADSVKGRFTISLDNAKNTVYLQMYSLKPEDTAVYYCAKRWLRWRSNYWGQGTQVTVSS
polyreactivity (PSR sort gate): high polyreactivity

QVQHVESGGGLLQAGGSLRLTCAASGSTFGTYAMGWYRQAPGKERELVATISIGGITYYADSVKGRFTISRDNAKNTVYLQLNSLKPEDTAVYYCAKDVNDATSRSDPSGDDYWGQGTQVTVSS
polyreactivity (PSR sort gate): low polyreactivity

QVQLVESGGGLVQAGGSLRLSCAASGRTFYYYAMGWYRQAPGKERELVARIRSGGSTNYADSVKGRFTISRDNAKNTVYLQMNSLKPEDTAVYYCNSMGAKGYVKGFDYWGQGTQVTVSS
polyreactivity (PSR sort gate): low polyreactivity

QVQLVESGGGLVQAGGSLRLSCAASGRIFSYNAMGWYRQEPGKERELVASITSGGGRTYYADSVKGRFTISRDYAKNTVYLQMNSLKPVDTAVYYCAADGEVKYDYWGQGTQVTVSS
polyreactivity (PSR sort gate): low polyreactivity

QVQLVESGGGLVQAGGSLRLSCAASGSTFSRYAMGWYRQAPGKVRELVAAISWGGNTYYADSVKGRFTISRDNAKNTVYLQMNSLKPEDTAVYYCNRYSKLYNTMDYWGQGTQVTVSS
polyreactivity (PSR sort gate): high polyreactivity

QVQLVESGGGLDQAGGSLRLICAASGSTFRYNAMGWYRQAPGKERELVAAISSSGGSTRYADSVKGRFTISRDNAKNTVYLQMNSLKPEDTAVYYCAVRFYDWRYYYWGQGTQVTVSS
polyreactivity (PSR sort gate): high polyreactivity

QDQLVESGGGLVQAGGSLRLSCAASGLTFPEYAMGWYRQAPGKERELVAAITWSGATTYYADSVKGRFTISRDNAKNTVYLQMNSLKPEDTAVYYCAAEYTVYNTALPGYYFTYYYWGQGTQVTVSS
polyreactivity (PSR sort gate): high polyreactivity

QVQLVESGGGLVQAGGSLRLSCAAYGLIFAISAMGWYRQAPGKERELVAAIRWSGASTYADSVKGRFTISRDNAKNTVYLQMNSLKTEDTAVYYCAADDLLHYDYWGQGTQVTVSS
polyreactivity (PSR sort gate): low polyreactivity

QVQLVESGGCLVQAGGSLRLSCAATGSTLGSYAMGWYRQAPGKERELVAAITFLGGSTYYADSVKGRFTSSRDNAKNTVYLQMNSLKPEDSAVYYCAARFLRVLFNLVFIYDYWGQGSQVTVSS
polyreactivity (PSR sort gate): high polyreactivity

QVQHEESGGGLVQAGGSLRLSCAASGRIFGTDAMGWFRQAPGKDRELVAAIRSSGDSTYYADSVKGRFTISRDNAKNTVYLQMNSLKPEDTAVYYCARTLRYYRPVLLVYRFGYWGQGTQVTVSS
polyreactivity (PSR sort gate): high polyreactivity

QVQLVESGGGLVQAGGSLRLSCAASGGIFDYYAMGWYRQAPGKERELVAAIRGGGSTNYADSVKGRFTISRDNAKNTVYLQMNSLKPEDTAVYYCAKRAGPEYDYWGQGTQVTVSS
polyreactivity (PSR sort gate): low polyreactivity

QVQLVESGGGLVQAGCSLRISCAASGLIFQYYAMGWYRQAPGKERELVAAISGFGVRTYYADSVKGRFTISRDNAKNTVYLQMNSLKPEDTAVYYCNTLRQDIIRGDYWGQGTQVTVSS
polyreactivity (PSR sort gate): high polyreactivity

QVQLVESGGGLVQAGGSLRLSCAASGRIIGRYAMGWYRQAPGKEREFVAAISGSGGSTYYADSVKGRFTISRDNAKNTVYLQMNSLKPEDTAVYYCNALSVPDYDYWGQGTQVTVSS
polyreactivity (PSR sort gate): high polyreactivity

QVQLVESGGGLVQAGGSLRLSCAASGLILHKYAMGWYRQAPGKERELVASINSGANTNYADSVKGRFTISRDNAKNTVYLQMNSLKPEDTAVYYCNADPGFRDYYWGQGTQVNVSS
polyreactivity (PSR sort gate): low polyreactivity

QVQLVESGGGLVQAGGSLRLSCAASGRILWYNAMGWYRQAPGKERELVAAINRGVSTNYADSVKGRFTISRDNAKNTVYLQMNSLKPEDTEVYYCAAVHDRLWYRSAYDYWRQGTQVTVSS
polyreactivity (PSR sort gate): low polyreactivity

QVQLVESGGGLVQAGGRLRLSCAASGFIFRPYAMGWYRQAPGKERELVPTISYRGGSTDYADSVKGRFTISRDNAKNTVYLQMNSLKPEDTAVYYCNAGYNRGYYYPVFAFFPYEYWGQGTQVTVSS
polyreactivity (PSR sort gate): low polyreactivity

QVQLVESGAGLVQAGGSLRLSCAASGSTFRPNVMGWSRQAPGKERELVAAITYSGRSTYYADSVKGRFTISRDNAKNTVYLQMNTLKPEDTAVYYCAARTWLRYCYWGQGTQVTVSS
polyreactivity (PSR sort gate): high polyreactivity

QVQLVESGGGLVQAGGSLRLSCAASGRIFVDNTMGWYRQAPGKEREFVAVISTSGGRTSYADSVKGRFTISRDNAKNTVYLQMNSLKPEDTAVYYCNALYGRYGWSKNYYWGQGTQVTVSS
polyreactivity (PSR sort gate): high polyreactivity

QVQLVESAGGLVQAGGSLRLSCAASGRTIDSYTMGWYRQAPGKERELVASISKRGGSTYYADSVKERFTISRDNAKNTVYLQMNSLKPQDTAVYYCATKSYYVSYYRYRVDYWGQVTQVTVSS
polyreactivity (PSR sort gate): high polyreactivity

QVQLVESGGGLVQAGGSLRLSSAASGIIFYNYAMGWDRQAPGKEWEFVAAISWSGGSTNYADSVKGRFTISRDTAKNTVDLQMNSLQPEDTAVYYCAAEYYGWYYGREAYWGQGTQVTVSS
polyreactivity (PSR sort gate): low polyreactivity

QVQLVESGGGLVQAGGSLRLSCAASGFIFYFYTMGWYRQAPGKERELVAGITWLDGSTYYADSVKGRFTISRDNAKNTVYLQMNSLKPEDTAVYYCAVDYDLVVSPYYYWGQGTQVTVSS
polyreactivity (PSR sort gate): low polyreactivity

QVQLVESGGGLVQAGGSLRLSCAASGFIFTTNAMGWYRQAPGKERELVAAITRSGGSTYADSVKGRFTLSRDNAKNTVYLQMNSLKPEETAVYYCNADGYFWGQGTQVTVSS
polyreactivity (PSR sort gate): low polyreactivity

QVQLVESGGGLVQAGGSLRISCAASGRIFYCYVMGWYRQAPGKERELVAAINLSGTSTYYADSVKGRFTISRDNAKNTVYLQMNSLKPEDTAVYYCAADQVGWTYDYWGQGTQVTVSS
polyreactivity (PSR sort gate): low polyreactivity

QVQLVESGGGLVQAGGSLSLSCAASGSIFVYKAMGWYRPAHGKERELVAAISSSGGSTYYADSVKGRFTISRDNAKNTVYLQMNSLKPEDTAVYYCAAEAVRKVPSYYSYAYYYWGQGTQVTVSS
polyreactivity (PSR sort gate): high polyreactivity

QVQLVESGGGLVQAGGSLRISCAASGFTFYYNAMGCYRQAPVKERELVAIRFRGGNTYYAYSVKGRFTISRDNAKITVYLQMNSLKPEDTAVYYCTADDRGSTYVYFDYWGQGTQVTVSS
polyreactivity (PSR sort gate): low polyreactivity

QVHLVESGGGLVQAGGSLRLSCAASGSIIGLYAMGWYRQAPGKERELVAYITGGGSTYYADSVKGRFTISRDIAKNTVYLQMNSLKPEDTAVYYCNKRGTEIGYDYWGQGTQVTVLS
polyreactivity (PSR sort gate): low polyreactivity

QVQLVESGGGLVQAGGSLRLSCAASGSTFHLNAMGWYRQAPGKERELVAAISWDGSSTSYADSVKGRFTISRDNAKNTVYLQMNSLKPEDTAVYYCAKRSSGVSVPVAYGGIKRYNSWGQGTQVTVSS
polyreactivity (PSR sort gate): low polyreactivity

QVQLVESGGGLVQAGGSLRLSCAASGRTLSNYAMGWYRQAPGKERELVAAISSSGSTNYADSVKGRFTISRDNAKNTVYLQMNSLKPEDTAVYYCAAESWFLRWYRYDYWGQGTQVTVSS
polyreactivity (PSR sort gate): low polyreactivity

QVQLVESGGGLVQAGGSLRLSCAASGRILAYNVMGWYRQAPGKEREFVASIRRTGVRTYYADSVKGRFTISRDNAKNTVYLQMNSLKPEDTAVYYCNAANFNFWDYYYWGQGTQVTVSS
polyreactivity (PSR sort gate): low polyreactivity

QVQLVESGGGLVQAGGSLRLSCAASGITFTAYAMGWYRQAPGKERELVATINSTGITNYADSVKGRFTISRDNAKNTVYLQMNSLKPEDTAVYYCAADLLDISSYDGMDYWGHGTQVTVSS
polyreactivity (PSR sort gate): low polyreactivity

QVQLVESGGGLVQAGGSLRLTCAASGYTFLHYAMGWYRQPPGKERELVAAITHSGTRTYYADSVKGRFTISRDNAKNTVYLQMNSLKPEDTAVHYCAARGYGKYDYWGQGTQVTVSS
polyreactivity (PSR sort gate): high polyreactivity

QVQLVESGGGLVQAGGSLRLSCAASGNTFRAYAMGWYRQAPGKERELVATITWSGGITDYADSVKGRFTISRDNAKNTVYLQMNSLKPEDTAVYYCAARSYRWWNFNYWGQGTQVTVSS
polyreactivity (PSR sort gate): high polyreactivity

QVQLVESGGGLVQAGGSLRLSCAASGRIFAPNAMGWYRQAPGKERELVAAISFSGDSTSYADSVKGRFTISRDNAKNTVYLQMNSLKPEDTAVYYCATDRRVQYPLGPSYDYDYWGQGTQVTVSS
polyreactivity (PSR sort gate): low polyreactivity

QVQLVESGGALVQAGGSLRLSCAASGRTFYSYAMGWYRQAPGKERELVAAINRGASTYYADSVKGRFTISRDNAKNTDYFQMKSLKPEDTAFYYCGARLYGRHYGYWGQGTQVTVSS
polyreactivity (PSR sort gate): high polyreactivity
